Measured values taken from article PMC3776215.

target: Recombinant human urokinase-type plasminogen activator receptor (uPAR) (human) (UniProt Q03405); assay: SPR
Sequence of UniProt Q03405 (Q03405 23-305): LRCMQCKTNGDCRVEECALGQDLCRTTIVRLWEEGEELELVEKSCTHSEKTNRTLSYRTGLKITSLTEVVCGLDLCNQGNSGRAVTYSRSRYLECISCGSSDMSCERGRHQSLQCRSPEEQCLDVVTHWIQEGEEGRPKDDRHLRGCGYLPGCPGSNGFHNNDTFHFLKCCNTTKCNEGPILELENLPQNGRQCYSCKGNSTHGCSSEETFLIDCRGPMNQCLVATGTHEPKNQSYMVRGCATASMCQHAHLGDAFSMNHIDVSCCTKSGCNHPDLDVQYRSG

Row | Substance | IC50 [nM] | Kd [nM] | koff [s⁻¹] | kon [M⁻¹ s⁻¹]
1 | CB-TE2A-PA-AE105^mut (peptide) | > 1000 | – | – | –
2 | CB-TE2A-PA-AE105 (peptide) | 6.1 | 27 | 0.0108 | 400000
3 | CB-TE2A-AE105 (peptide) | 5.9 | 7.7 | 0.0046 | –
4 | AE105 (Asp-Cha-Phe-(D)Ser-(D)Arg-Tyr-Leu-Trp-Ser) (peptide) | 6.7 | – | – | 620000
5 | DOTA-AE105 (peptide) | 6.7 | 9.4 | 0.0043 | 460000
6 | DOTA-AE105^mut (peptide) | > 1000 | – | – | –
7 | CB-TE2A-AE105^mut (peptide) | > 1000 | – | – | –
